Laboratory results reported in US20140235490A1.

System: SNAPtide (FITC/DABCYL), List Biological Laboratories product #521

## BoNT/A complex (botulinum neurotoxin type A with neurotoxin associated proteins, Hall A strain)
  Km of SNAPtide conversion, non-bead based assay (free toxin): non-bead based assay: typical Km=0.7 µM
  Km of the immobilized enzyme against the free enzyme: 3.2-fold lower than for the free enzyme
